The target of assay [1] is T1, human TIGIT on cells (Jurkat-TIGIT cells; human T cells, NK cells and other blood cells) (human, UniProt Q495A1 22-244).
T1 sequence: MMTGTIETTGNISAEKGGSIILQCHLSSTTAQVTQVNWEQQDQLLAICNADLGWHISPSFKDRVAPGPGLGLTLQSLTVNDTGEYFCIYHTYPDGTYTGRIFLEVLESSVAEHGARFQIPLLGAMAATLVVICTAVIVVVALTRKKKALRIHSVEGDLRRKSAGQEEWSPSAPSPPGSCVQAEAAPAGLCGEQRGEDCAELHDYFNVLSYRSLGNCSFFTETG
The assay is described as follows: cell-based or functional assay.

In assay [2] the target is T2, extracellular region of human TIGIT fused to FLAG and GPI (hTIGIT-GPI), on the surface of NS0 cells (human).
T2 construct: The GPI signal is processed when the anchor is attached; also called NS0-hTIGIT cells
T2 chain: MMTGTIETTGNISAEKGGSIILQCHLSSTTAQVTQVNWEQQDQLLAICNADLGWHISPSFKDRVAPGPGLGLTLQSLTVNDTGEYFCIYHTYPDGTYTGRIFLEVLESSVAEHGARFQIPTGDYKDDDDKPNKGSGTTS
The assay is described as follows: flow cytometry, competition with hCD155-Fc for NS0-hTIGIT cells. The protocol:
The activity of TIG1, TIG2 and TIG3 to block the interaction between TIGIT and CD155 was analyzed by flow cytometry. NS0-hTIGIT cells were incubated with a sub-saturating concentration of hCD155-Fc in the presence (or absence) of various concentrations of an anti-TIGIT monoclonal antibody as a competitor. Detection of hCD155-Fc bound to NS0-hTIGIT cells was performed with DyLight488-labeled goat anti-human IgG, Fc-specific antibody (Jackson ImmunoResearch, West Grove, Pa.).
(A flow cytometer gives signals particle by particle.)

In assay [3] the target is T3, extracellular region of human TIGIT fused to the Fc region of human immunoglobulin gamma-1 chain (hTIGIT-Fc) (human).
T3 construct: also called human TIGIT-Fc fusion protein; wild-type TIGIT-Fc
The assay is described as follows: ELISA, hybridoma screening. From the text:
Mouse antibodies secreted in culture supernatants of hybridoma cells were subjected to a series of screening to identify the antibodies with the following properties: (1) binding to purified hTIGIT-Fc fusion protein, (2) binding to NS0-hTIGIT cells, (3) non-binding to NS0 cells, (4) binding to CD3+ T cells derived from phytohemagglutinin-treated human peripheral blood mononuclear cells and (5) blocking of the binding of hCD155-Fc fusion protein to NS0-hTIGIT cells. The first property to bind to hTIGIT-Fc was tested by ELISA using HRP-conjugated goat antibodies against mouse kappa and lambda light chains (SouthernBiotech, Birmingham, Ala.) for identification of mouse anti-TIGIT antibodies. The second, third and fourth properties were examined by flow cytometry using PE-labeled goat anti-mouse gamma chain antibody (SouthernBiotech) for detection of cell-bound mouse antibodies. The fifth property was analyzed by flow cytometry as described below. […] TIG1, TIG2 and TIG3 monoclonal antibodies were purified from culture supernatant of hybridoma cells by protein A column chromatography as described above. The isotypes of TIG1, TIG2 and TIG3 are mouse IgG2b/kappa, IgG2a/kappa and IgG2a/kappa, respectively.
In general terms: In an ELISA, binding on a coated surface is turned into a signal by an enzyme label.

Assay [4] has as its target T4, TIGIT-Fc fusion protein with the D51A mutation (human).
T4 construct: also called pFCm179-D51A product
The assay is described as follows: ELISA, mutant TIGIT-Fc captured by anti-human Fc, antibody at 200 ng/ml, wild type TIGIT-Fc = 100 %. The protocol: (§1) Binding of each of mouse TIG1, TIG2 and TIG3 antibodies to the TIGIT mutants was examined by ELISA. An ELISA plate was coated with 100 μl/well of goat anti-human IgG Fc-specific polyclonal antibody (Sigma-Aldrich), 1/2,000-diluted in PBS at 4° C. overnight, washed with Wash Buffer, and blocked with 200 μl/well ELISA Buffer for 20 min at room temperature. After washing with Wash Buffer, 0.5 μg/ml of transiently expressed TIGIT-Fc fusion proteins, carrying either the wild-type TIGIT or one of the six TIGIT mutants, in ELISA Buffer (100 μl/well) were applied to the ELISA plate in duplicates for incubation at room temperature for 30 min. As a negative control, culture supernatants of untransfected HEK293 cells were used. After washing with Wash Buffer, 100 μl/well of 200 ng/ml of a test antibody (TIG1, TIG2 or TIG3) in ELISA Buffer (100 μl/well) was applied. After incubating the ELISA plate for 30 min at room temperature and washing with Wash Buffer, bound antibodies were detected using 100 μl/well of HRP-conjugated goat anti-mouse kappa chain polyclonal antibody (Bethyl Laboratories, Montgomery, Tex.), 1/2,000-diluted in ELISA Buffer. After incubating the plate for 0.5 hr at room temperature and washing with Wash Buffer, color development was initiated by adding 100 μl/well of ABTS substrate (Sigma-Aldrich) and stopped with 100 μl/well of 2% oxalic acid. Absorbance was read at 405 nm.
(§2) For each of TIG1, TIG2 and TIG3, the relative binding to each TIGIT mutant was calculated in the following formula. The average absorbance with the wild type TIGIT-Fc fusion proteins [Abs A] was normalized to 100%, and the average absorbance with culture supernatants of untransfected HEK293 cells [Abs B] was normalized to 0%. The average absorbance with a mutant TIGIT-Fc fusion protein [Abs C] was normalized by the following formula: 100×([Abs C]−[Abs B])/([Abs A]−[Abs B]). […] None of the TIGIT mutants used in this assay abolished the binding of TIG2 and TIG3 to TIGIT.

The target in assay [5] is T5, TIGIT-Fc fusion protein with the N37A mutation (human).
T5 construct: also called pFCm179-N37A product
The description is as above. The protocol: as §1, §2

Assay [6] deals with T6, TIGIT-Fc fusion protein with the N49A mutation (human).
T6 construct: also called pFCm179-N49A product
The description is as above. Here is the method: as §1, §2

Assay [7] deals with T7, TIGIT-Fc fusion protein with the F86A mutation (human).
T7 construct: also called pFCm179-F86A product
The description is as above. The protocol: as §1, §2

Assay [8] has as its target T8, TIGIT-Fc fusion protein with the Q35A mutation (human).
T8 construct: the entry already carries the mutation; also called pFCm179-Q35A product
The assay is described as above. The protocol:
as §1, §2

The target of assay [9] is TIGIT-Fc fusion protein with the E39A mutation (printed Q39A in the text) (human). The description is as above. Here is the method: as §1, §2
The target of assay [10] is T4, TIGIT-Fc fusion protein with the D51A …. The assay is described as follows: ELISA on captured mutant TIGIT-Fc. Here is the method: as §1, §2
Assay [11] has as its target T5, TIGIT-Fc fusion protein with the N37A …. The experiment in a line: ELISA on captured mutant TIGIT-Fc. Here is the method:
as §1, §2

The target in assay [12] is T8, TIGIT-Fc fusion protein with the Q35A …. The assay is described as follows: ELISA on captured mutant TIGIT-Fc. Here is the method:
as §1, §2

B1: TIG1 mouse anti-human TIGIT monoclonal antibody (antibody, mouse IgG2b, V domains shown)
VH: DVQLVESGGGLVQPGGSRKLSCAASGFTFSNFGMHWVRQAPEKGLEWVAFISSGSSSIYYADTVKGRFTISRDNPKNTLFLQMTSLRSEDTAMYYCARMRLDYYAMDYWGQGTSVTVSS
VL: DVQITQSPSYLAASPGETITINCRASKSISKYLAWYQEKPGKTNKLLIYSGSTLQSGIPSRFSGSGSGTDFTLTISSLEPEDFAMYYCQQHNEYPWTFGGGTKLEIK
notes: also called anti-TIGIT antibody (TIG1)
In general, IC50 refers to the point on the concentration scale where inhibition reaches its midpoint. A higher IC50 goes with weaker potency. Take B1: the “enhancement of NK cell mediated natural cytotoxicity of K562 cells” value in assay [1] came out at 2 fold. The molecule further gave an IC50 in assay [2] of 0.049 µg/mL. Also, the binding result in [3] is listed as “binds”; in assay [10], “no binding”; in [11], “no binding”; in [12], “no binding”. In addition, the “Relative binding to TIGIT (%)” value in assay [4] is 1.8%; in [5] it was 0.8%; in [6] it was 0.5%; in assay [7] it was 49.5%; in assay [8] it was -0.1%; in [9], 71.1%.

The record behind these values is patent publication US20170281764A1 (JN BIOSCIENCES, published 2017).
